Measured values from the supplement of paper PMC9732359.
± gives the uncertainty stated by the source.

Assay: protein stability index of a GFP-peptide fusion (yeast GPS) (PSI 1-4); higher = more stable; sorted into four equal gates, so the index is relative within each strain
Summary of the method: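 Tiled yeast protein peptides of 17 residues were each joined downstream of GFP, on plasmids that also express Cherry. The pooled library was maintained in yeast, and mid-log cultures in leucine-free medium were sorted into four equal gates on the GFP/Cherry ratio. Plasmids from every gate were amplified by PCR and sequenced on Illumina, with barcodes linking reads to strains. The protein stability index of a peptide is its gate-number-weighted read frequency summed over the gates.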

Sequence | protein stability index (doa10∆) | protein stability index (pdr5∆) | protein stability index (san1∆) | protein stability index (ubr1∆)
KMENFEFLPLSLHILMI [SRB8] | 2.79 ± 0.077 | 2.8 ± 0.054 | 1.91 ± 0.076 | 2.85 ± 0.06
RRSKMNPLWNAIIVAGV [PRE4] | 2.87 ± 0.097 | 3.25 ± 0.12 | 2.86 ± 0.097 | 2.93 ± 0.074
WRVREASTSALLQLIQS [ECM29] | 1.16 ± 0.13 | 1.41 ± 0.12 | 1.04 ± 0.22 | 
KNEKLILEESLNAIILK [SMC3] | 2.74 ± 0.075 | 2.64 ± 0.087 | 2.18 ± 0.17 | 2.65 ± 0.064
GINSPLSSVALRSDFYI [YJL039C/NUP192] | 2.45 ± 0.15 | 2.78 ± 0.12 | 2.96 ± 0.14 | 3.07 ± 0.15
QTLKGVGVENNGQYAAF [RPC37] | 3.12 ± 0.14 | 3.31 ± 0.098 | 2.9 ± 0.18 | 2.94 ± 0.2
ITSLYALIRRDFTLIPR [CDC53] | 2.95 ± 0.08 | 1.28 ± 0.071 | 1.18 ± 0.15 | 1.41 ± 0.031
PGDIVRAQVLSLGDGTN [CSL4] | 3.62 ± 0.24 | 3.26 ± 0.12 | 3.14 ± 0.12 | 3.29 ± 0.12
ELAAKEEPAKEEAPAPT [FAS2] | 3.08 ± 0.2 | 3.24 ± 0.14 |  | 
RHGFNRSNTGALMRCSF [RPO21] | 2.71 ± 0.059 | 3.01 ± 0.064 | 2.85 ± 0.061 | 2.88 ± 0.079
TPTDVIGVVSLTNGVTE [RRP6] | 3.21 ± 0.14 | 2.87 ± 0.07 | 3.03 ± 0.098 | 3.15 ± 0.059
DIIWLQRDLGLYVVGLF [RRP6] | 2.27 ± 0.062 | 2.22 ± 0.099 | 1.4 ± 0.1 | 2.29 ± 0.12
QTLSEKEYQCSAVIIDE [YIL149C/MLP2] | 2.64 ± 0.11 | 3.03 ± 0.098 | 3.15 ± 0.082 | 2.88 ± 0.054
KFFRVKYENKISTVIEV [SMC3] | 1.35 ± 0.13 | 1.2 ± 0.11 | 1.09 ± 0.28 | 1.12 ± 0.087
GIQEVVHNTNSFIISSL [NUT1] | 2.12 ± 0.074 | 2.46 ± 0.059 | 2.04 ± 0.087 | 2.54 ± 0.066
ELAQYMKTNVHTQANEP [RGR1] | 2.81 ± 0.081 | 2.99 ± 0.086 | 2.75 ± 0.064 | 2.75 ± 0.068
QDLSRNTLGKGQNCLDI [SNU114] | 3.35 ± 0.12 | 3.28 ± 0.12 | 3.28 ± 0.16 | 3.61 ± 0.15
DDFTNELKAELDRYKRE [SEM1] | 3.09 ± 0.17 | 3.36 ± 0.14 | 2.97 ± 0.11 | 3.47 ± 0.24
CTESTRENALYDYYALQ [SNF2] | 1.83 ± 0.078 | 2.25 ± 0.064 | 2.99 ± 0.048 | 2.91 ± 0.083
LVPKRCLFESLSNEAAL [RPO31] |  | 2.84 ± 0.2 |  | 2.78 ± 0.22
ELFKGYLADDIDADSLE [RPL5] | 3.02 ± 0.086 | 3.21 ± 0.076 | 3.23 ± 0.064 | 3.17 ± 0.087
KLNTLSEILSFDPVYTT [YML103C/NUP188] | 2.54 ± 0.061 | 2.77 ± 0.067 | 2.85 ± 0.073 | 2.77 ± 0.078
SASFSLKNGDKPHLLKF [RPL6B] | 2.4 ± 0.16 | 2.42 ± 0.23 | 3.25 ± 0.14 | 3.42 ± 0.16
LEANGRSLEKVNNSVSK [SSN2] | 3.48 ± 0.15 | 3.47 ± 0.12 | 3.18 ± 0.11 | 3.37 ± 0.1
KKTVAGGAYTVSTAAAA [RPL43A] | 2.43 ± 0.068 | 2.46 ± 0.065 | 2.15 ± 0.074 | 2.15 ± 0.05
RKWMEEKADYERELISN [YIL149C/MLP2] | 3.23 ± 0.045 | 3.35 ± 0.086 | 3.11 ± 0.04 | 3.31 ± 0.063
DSTLILEQLAQHTTESD [RPB2] | 2.17 ± 0.05 | 2.67 ± 0.055 | 2.46 ± 0.072 | 2.43 ± 0.052

Sequence | protein stability index (doa10∆) | protein stability index (pdr5∆) | protein stability index (san1∆) | protein stability index (ubr1∆)
LRIELQSVYNDEKLKTE [SRB8] | 3.17 ± 0.22 | 3.23 ± 0.24 | 3.26 ± 0.12 | 
VSPNAAPRQEISEEETT [YAR002W/NUP60] | 3.19 ± 0.1 | 2.88 ± 0.077 | 2.9 ± 0.086 | 2.6 ± 0.12
QNNKPSFVFGQAAAKPS [YLR335W/NUP2] | 1.77 ± 0.05 | 2.12 ± 0.066 | 2.2 ± 0.1 | 2.45 ± 0.075
MSAKAQNPMRDLKIEKL [RPL11A] | 3.39 ± 0.16 | 3.26 ± 0.11 | 3.46 ± 0.11 | 3.61 ± 0.24
SEISDGKLKRCSRCGSV [SIN4] | 3.33 ± 0.17 | 3.4 ± 0.14 | 3.36 ± 0.11 | 3.59 ± 0.11
TLLREVVFTRLVQRCWQ [CSN12] | 1.4 ± 0.061 | 1.24 ± 0.048 | 1.39 ± 0.12 | 1.54 ± 0.055
DDQLKQRRQNIRDLEKL [RPT4] | 2.81 ± 0.23 | 3.11 ± 0.29 | 3.12 ± 0.13 | 3.15 ± 0.16
TSLLNKVLKSGSGVDSS [RRP42] | 2.87 ± 0.12 | 2.88 ± 0.077 | 2.6 ± 0.13 | 3.21 ± 0.12
LIENKIQNKKIQEQRVK [RPN8] | 2.61 ± 0.075 | 2.7 ± 0.073 | 2.74 ± 0.068 | 2.83 ± 0.049
YHGISKNDNIKKSVNKL [POP6] | 2.7 ± 0.064 | 2.75 ± 0.049 | 2.77 ± 0.05 | 2.85 ± 0.046
RMSSEEVNSLLLQVNKT [GRR1] | 3.03 ± 0.16 | 3.13 ± 0.2 | 2.96 ± 0.19 | 2.78 ± 0.16
PLSRINENENFGYDIPL [YML103C/NUP188] | 3.02 ± 0.12 | 3.14 ± 0.095 | 3.15 ± 0.064 | 3.08 ± 0.077
AQDEEIHKQIVIEMKRC [UBP6] |  |  | 3.26 ± 0.066 | 3.2 ± 0.14
VGDEFKGYVFKISGGND [RPS6A] | 3.08 ± 0.28 | 3.49 ± 0.13 | 3.06 ± 0.15 | 3.58 ± 0.13
DDENEPKRKRRLPVSED [YOR098C/NUP1] | 3.34 ± 0.1 | 3.28 ± 0.14 | 3.09 ± 0.087 | 3.06 ± 0.072
NNDDDDNSVEQGRRLGE [MCD1] |  | 3.46 ± 0.21 |  | 3.37 ± 0.12
PEPSHIDQVMMSVSDND [RET1] | 2.43 ± 0.047 | 2.06 ± 0.045 | 2.43 ± 0.05 | 2.48 ± 0.042
AETTFLQDVIALSIADD [RPC53] | 2.24 ± 0.07 | 1.8 ± 0.065 | 1.97 ± 0.12 | 2.18 ± 0.07
TETALMNLKKELQGYIE [SRB5] | 3.05 ± 0.097 | 3.07 ± 0.089 | 3.11 ± 0.062 | 2.94 ± 0.085
SQTQLENANAANNGAAF [MED2] | 2.71 ± 0.054 | 2.75 ± 0.051 | 2.85 ± 0.053 | 1.74 ± 0.032
NESLIPLINLALIDTEF [YML103C/NUP188] | 2.51 ± 0.11 | 1.9 ± 0.088 | 1.32 ± 0.15 | 2.1 ± 0.12
LRSTEYSKSFEQFKMVS [POP1] | 2.21 ± 0.089 | 2.63 ± 0.12 | 2.49 ± 0.094 | 2.52 ± 0.11
AEEFVAGVSHGTLGEIF [SMX3] |  |  |  | 3.57 ± 0.28
LGKCSRITDASLFQLSK [GRR1] | 3.04 ± 0.11 | 3.14 ± 0.11 | 3.14 ± 0.093 | 2.88 ± 0.063
GSSRIIASDGSECIVSI [RRP42] | 3.33 ± 0.14 | 3.27 ± 0.075 | 3.11 ± 0.061 | 3.12 ± 0.15
MGKRVDFSARTVISGDP [RPO21] | 2.98 ± 0.087 | 3.27 ± 0.12 | 3.08 ± 0.14 | 3.1 ± 0.19
LHYDKDYNLRIYCYFLI [SSN8] | 1.28 ± 0.046 | 1.37 ± 0.045 | 1.37 ± 0.078 | 1.53 ± 0.046
